The results in this text go back to article PMC7888922.

pKd: −log10 of the molar value.

The target of this assay is sACE2_(2).v2.4-IgG1 (human) (UniProt Q9BYF1). In words: BLI. On the technique in general: BLI is a label-free optical method that tracks binding on a fibre tip over time.

The pKd is the Kd on a negative log10 scale, so that one unit is a factor of ten. The low end stands for a high Kd, the high end for a low Kd. As a reminder, the koff is the rate constant with which the complex falls apart. A higher koff goes with a short-lived complex. What is called kon is the rate constant with which the complex forms. Read a high kon as fast association. Regarding “SARS-CoV-2 RBD-N501Y (8his-tagged) (from UniProt P0DTC2 333-529) (domain or fragment)”, the pKd was > 10.00, the koff stood at 0.00011 s⁻¹ and the kon is 360000 M⁻¹ s⁻¹.

The substance “SARS-CoV-2 RBD-Y449K (8his-tagged) (from UniProt P0DTC2 333-529) (domain or fragment)” gave a pKd of 9.05, a koff of 0.004 s⁻¹ and a kon of 4.3e+06 M⁻¹ s⁻¹.
